Target: ubiquitin (15N-Ub) (UniProt P0CG48)
Assay: NMR titration

Question: Which Kd relative to the V domains of Alix and HD-PTP (~50 μM) does the source give for “V domain of S. castelli Bro1 (domain or fragment)” here?
Answer: 5 fold

— paper PMC3755756
